Measurements from publication PMC2681181.
One block for each substance: values may come before it.

Target: Integrin β1 (human (endogenous in MCF-7 and MCF-10A)) (UniProt P05556)
Test: co-IP

UniProt P05556, sequence (P05556 21-798): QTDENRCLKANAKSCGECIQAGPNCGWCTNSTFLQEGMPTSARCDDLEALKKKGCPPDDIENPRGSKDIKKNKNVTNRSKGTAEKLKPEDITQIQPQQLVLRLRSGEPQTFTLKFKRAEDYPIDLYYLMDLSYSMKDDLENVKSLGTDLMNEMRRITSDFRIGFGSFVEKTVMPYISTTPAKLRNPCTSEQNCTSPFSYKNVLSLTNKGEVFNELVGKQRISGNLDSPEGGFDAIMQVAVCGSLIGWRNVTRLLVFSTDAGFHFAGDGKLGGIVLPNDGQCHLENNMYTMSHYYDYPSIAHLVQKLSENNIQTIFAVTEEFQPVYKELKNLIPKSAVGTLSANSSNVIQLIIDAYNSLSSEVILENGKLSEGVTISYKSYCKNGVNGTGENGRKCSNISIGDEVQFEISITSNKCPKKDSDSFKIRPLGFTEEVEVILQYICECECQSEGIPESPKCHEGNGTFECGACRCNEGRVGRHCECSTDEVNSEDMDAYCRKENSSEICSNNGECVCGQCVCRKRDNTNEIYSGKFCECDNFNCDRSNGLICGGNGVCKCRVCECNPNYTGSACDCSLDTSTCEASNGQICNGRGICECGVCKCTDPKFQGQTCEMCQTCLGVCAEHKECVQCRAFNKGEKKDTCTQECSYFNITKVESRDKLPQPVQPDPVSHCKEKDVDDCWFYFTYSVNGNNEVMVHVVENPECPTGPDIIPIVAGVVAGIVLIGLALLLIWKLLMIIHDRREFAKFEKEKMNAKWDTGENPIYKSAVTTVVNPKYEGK

percent increase of co-precipitated INTα2 after combined CII/LAM treatment: 53.8%
Substance: Integrin α2 (from UniProt P17301 30-1181) (receptor)

percent decrease of co-precipitated LAM in the combined CII/LAM treatment: 27.8%
Substance: laminin (from UniProt P02469 22-1786) (complex)

percent decrease of co-precipitated CII in the combined CII/LAM treatment: 27.1%
Substance: type II collagen (from UniProt P02459 182-1241) (ligand)
